The target of test [1] is T1, human bradykinin B1 receptor (human, UniProt P46663 1-353).
T1 construct: whole, on cells; Assays were run on cell membrane preparations (50 ug/well), not on intact cells; HEK293T::GFP::hB1R membranes appear only in the saturation assay; also called hB1R; BDKRB1
T1 sequence (looked up): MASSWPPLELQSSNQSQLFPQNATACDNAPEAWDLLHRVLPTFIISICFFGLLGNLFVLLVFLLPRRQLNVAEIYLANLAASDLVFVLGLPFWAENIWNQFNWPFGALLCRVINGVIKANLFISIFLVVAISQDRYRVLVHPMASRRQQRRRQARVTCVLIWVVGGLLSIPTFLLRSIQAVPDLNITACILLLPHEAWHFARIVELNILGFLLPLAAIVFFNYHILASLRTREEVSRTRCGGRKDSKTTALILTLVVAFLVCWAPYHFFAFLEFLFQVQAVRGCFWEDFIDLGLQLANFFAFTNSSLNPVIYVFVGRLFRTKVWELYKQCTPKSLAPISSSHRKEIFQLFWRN
Kind of test: average Ki of the competitive radioligand binding assays on hB1R membranes. On the procedure:
(§1) Competitive Binding Assays: Assays were performed using 96-well MultiScreenₘₛ with glass fiber filter and PVDF support obtained from Millipore Corp, Billerica, Mass. (cat. no. MSFB N6B, lot no. R8AN42424). Wells of the MultiScreen plate were pre-soaked with 0.5% of cold Poly(ethyleneimine) (PEI) (cat. no. P3143, Sigma-Aldrich, St. Louis, Mo.) for 30 minutes. Afterward, wells were washed once with 50 mM of Tris-HCl pH 7.4. Total volume per wells was 200 μL. […] The MultiScreen plate was then incubated at 27° C. for 15 minutes with agitation at 300 rpm. The assay was stopped by suctioning the reaction solution through the bottom PVDF membrane filter and discarded. The membranes were washed 7x with 150 μL/well of cold 50 mM Tris-HCl pH 7.4. Radioactivity was counted using 1450 MicroBeta TriLux—Microplate Scintillation and Luminescence Counter (Perkin Elmer Inc., Shelton, Conn.).

The target of test [2] is T1, human bradykinin B1 receptor. Description: competitive radioligand binding; hot ligand BK-ANT-ARC 4.6 nM; CHO-K1 hB1R membranes. On the procedure:
as §1

Test [3] shares this target. Kind of test: competitive radioligand binding; hot ligand BK-ANT-ARC 4.5 nM; CHO-K1 hB1R membranes. On the procedure:
as §1

Test [4] shares this target. Kind of test: assay not described at this place; competitive binding presumed.
For test [5] the target is unchanged. Kind of test: saturation radioligand binding, membranes of CHO-K1::hB1R cells. On the procedure:
(§2) Assays were done using 96-well MultiScreenHTS with glass fiber filter and PVDF support obtained from Millipore Corp, Billerica, Mass. (cat. no. MSFB N6B, lot no. R8AN42424). Wells of the MultiScreen plate were pre-soaked with 0.5% of cold Poly(ethyleneimine) (PEI) (cat. no. P3143, Sigma-Aldrich, St. Louis, Mo.) for 30 minutes. Afterward, wells were washed once with 50 mM of Tris-HCl pH 7.4. Total volume per wells was 200 μL. […] The assay buffer contained 50 mM of Tris-HCl pH 7.4 and 5 mM of MgCl₂. The Multiscreen plate was incubated at 27° C. for 15 minutes. The assay was stopped by suctioning the reaction solution through the PVDF membrane filter, and washing the filter with ice cold 50 mM Tris-HCl pH 7.4. Scintillation fluid was added to each well, and the radioactivity was measured using a MicroBeta Trilux Microplate Scintillation and Luminescence Counter (Perkin Elmer Inc., Shelton, Conn.). Graphpad Prism 5 was used to calculate the affinity constant (Kd) and the receptor concentration (Bmax).

The target is the same in test [6]. Description: saturation radioligand binding, membranes of HEK293T::GFP::hB1R cells. On the procedure:
as §2

Test [7] shares this target. Description: saturation radioligand binding, CHO-K1::hB1R against HEK293T::GFP::hB1R membranes. On the procedure:
as §2

Test [8] has the same target. Description: competitive radioligand binding; hot ligand BK-AG-ARC 12.5 nM; CHO-K1 hB1R membranes. As to the method:
as §1

For test [9] the target is unchanged. Description: average Ki of the competitive radioligand binding assays on hB1R membranes (single assay). On the procedure:
as §1

Test [10] shares this target. Description: competitive radioligand binding; hot ligand BK-ANT-ARC 12.5 nM; CHO-K1 hB1R membranes. On the procedure: as §1

Values joined by “and” are separate entries in the source; they are usually repeats but may differ in a detail not shown here. Equal values may be shown once. Where no end group is shown, it is not given here. [ ]: non-standard residue; d: D form. The star is where a group is joined. DOTA = O=C(O)CN1CCN(CC(=O)O)CCN(CC(=O)*)CCN(CC(=O)O)CC1; Hyp = O=C(O)[C@@H]1C[C@@H](O)CN1; Cha = N[C@@H](CC1CCCCC1)C(=O)O; Ahx = NCCCCCC(=O)O

The values below come from patent US20150238641A1 (BRITISH COLUMBIA CANCER AGENCY BRANCH, published 2015).

B1: Peptide 3: Ga-DOTA-PEG2-Lys-Arg-Pro-Hyp-Gly-Cha-Ser-Pro-Leu (peptide)
peptide: KRPXGXSPL
modifications: N-terminal Ga-DOTA-PEG2- (PEG2 = 3-[2-(2-aminoethoxyl)ethoxy]propanoic acid); Hyp at position 4; Cha at position 6
notes: 68Ga-labelled in the in vivo imaging; also called Ga-68 Peptide 3
As to B1, the Ki in [1] was 16 nM; in test [2], 13.3 nM and 17.1 nM and 17.6 nM and 16 nM.
Consider {DOTA}-GGKRP[Hyp]G[Cha]SPL (also: Ga loaded in DOTA, 68Ga-labelled in vivo) [Peptide 8: Ga-DOTA-Gly-Gly-Lys-Arg-Pro-Hyp-Gly-Cha-Ser-Pro-Leu], for which the Ki is 11.4 nM in [1]; 8.63 nM and 12.1 nM in test [3]; 13.5 nM in [2].
As for {DOTA-Ahx}-KRPPGFSPL (also: Ga complex of DOTA (natGa in assays, 68Ga in vivo), also called P03083) [Peptide 4: Ga-DOTA-Ahx-Lys-Arg-Pro-Pro-Gly-Phe-Ser-Pro-Leu], the inhibition constant (Ki) in test [4] was 12.4 nM; in [1], 2.55 nM; in [2], 2.47 nM and 3.57 nM and 2.23 nM and 1.93 nM.

B2: H-Lys-Arg-Pro-Pro-Gly-Phe-Ser-Pro-Leu-OH (BK-ANT, Bachem H-2582) (peptide)
peptide: H-KRPPGFSPL-OH
notes: Unlabelled control B1R antagonist bought from Bachem; also called Lys[Leu^8]-des-Arg^9-BK; [Leu^9,des-Arg^10]kallidin
As to B2, in test [2], the Ki was 0.49 nM.

B3: [3,4-prolyl-3,4-3H(N)] [Leu^9, Des-Arg^10]Kallidin (peptide)
peptide: KRPPGFSPL
modifications: also: 3,4-prolyl-3,4-3H(N) tritium label on proline
notes: Radioligand from American Radiolabeled Chemicals (ART1609) or Perkin Elmer (NET1096250UC); also called BK-ANT-ARC; BK-ANT-PE
Take B3: the Kd in test [5] was 0.574 nM; in [6], 3.46 nM. Besides, the “fold lower Kd in CHO-K1::hB1R cells than in HEK293T::GFP::hB1R cells” value in test [7] stood at 6 fold.
Turning to KRPXGXSPL (N-terminal Ga-DOTA-Ahx-; Hyp at position 4; Cha at position 6) [Peptide 10: Ga-DOTA-Ahx-Lys-Arg-Pro-Hyp-Gly-Cha-Ser-Pro-Leu], the inhibition constant Ki was 27.8 nM in test [1]; 22.3 nM and 29 nM and 32 nM in test [2].

B4: Peptide 2: DTPA-Ahx-Lys-Arg-Pro-Hyp-Gly-Cha-Ser-Pro-(D-Phe) (peptide)
peptide: KRPXGXSPF
modifications: N-terminal DTPA-Ahx- (printed 'DPA-Ahx' in Table 4); Hyp at position 4; Cha at position 6; D-Phe at position 9
As for B4, the inhibition constant Ki in test [8] and in test [9] was 131 nM each time.

B5: Peptide 12: Ga-DOTA-Ahx-Lys-Arg-Pro-Hyp-Gly-Cha-Ser-Pro-(D-Phe) (peptide)
peptide: KRPXGXSPF
modifications: N-terminal Ga-DOTA-Ahx-; Hyp at position 4; Cha at position 6; D-Phe at position 9
notes: 68Ga-labelled in vivo
As for B5, the inhibition constant (Ki) in test [1] is 25.4 nM; in [2], 19.7 nM and 29.1 nM and 27.5 nM.

B6: Peptide 1: D-Pra-Ahx-Lys-Arg-Pro-Hyp-Gly-Cha-Ser-Pro-(D-Phe) (peptide)
peptide: KRPXGXSPF
modifications: N-terminal D-Pra-Ahx- (D-propargylglycine, 6-aminohexanoic acid); Hyp (hydroxyproline) at position 4; Cha (beta-cyclohexylalanine) at position 6; D-Phe at position 9
notes: Agonist-derived probe
With B6, the inhibition constant Ki is 32.2 nM in test [1], 10.9 nM in [8] and 74.6 nM in test [10].

Usually Ki stands for a measure of affinity in units of concentration, obtained from inhibition or displacement. Low readings indicate higher affinity, high ones lower affinity. As usually defined, the Kd is the concentration at which binding is half-saturated.
